The values below are quoted from earlier work in PMC6155412.

As usually defined, the Kd is the free concentration of one partner at which half of the binding sites on the other are occupied at equilibrium, for simple one-to-one binding.

The data set addresses FPR2 (Homo sapiens) (UniProt P25090).
Chain of UniProt P25090 (P25090 whole entry): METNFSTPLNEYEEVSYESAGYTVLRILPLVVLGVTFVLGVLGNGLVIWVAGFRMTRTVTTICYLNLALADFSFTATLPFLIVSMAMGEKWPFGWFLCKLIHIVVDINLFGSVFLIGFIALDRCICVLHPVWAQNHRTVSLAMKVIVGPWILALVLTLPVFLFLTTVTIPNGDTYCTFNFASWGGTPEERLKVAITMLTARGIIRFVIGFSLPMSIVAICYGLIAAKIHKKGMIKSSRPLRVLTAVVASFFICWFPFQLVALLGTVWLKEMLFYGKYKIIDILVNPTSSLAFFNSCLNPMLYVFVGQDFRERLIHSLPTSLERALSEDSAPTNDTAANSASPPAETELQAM

Turning to uteroglobin (UG) (from UniProt P11684), the Kd was 33 nM.
